Positions count from the first letter of the chain named. Names may count otherwise.
B1: Myotilin Ig1Ig2^250–444 (Ig1Ig2 tandem), Q9UBF9 K359A (protein)
chain: PRFIQVPENMSIDEGRFCRMDFKVSGLPAPDVSWYLNGRTVQSDDLHKMIVSEKGLHSLIFEVVRASDAGAYACVAKNRAGEATFTVQLDVLAKEHKRAPMFIYKPQSKAVLEGDSVKLECQISAIPPPKLFWKRNNEMVQFNTDRISLYQDNTGRVTLLIKDVNKKDAGWYTVSAVNEAGVTTCNTRLDVTARP
B2: Myotilin Ig1Ig2^250–444 (Ig1Ig2 tandem), Q9UBF9 K367A (protein)
chain: B1 chain with A110K, K118A
B3: Myotilin Ig1Ig2^250–444 (Ig1Ig2 tandem), Q9UBF9 K411A (protein)
chain: B1 chain with A110K, K162A
B4: Myotilin Ig1Ig2^250–444 (Ig1Ig2 tandem), Q9UBF9 R405K (protein)
chain: B1 chain with A110K, R156K
B5: Myotilin Ig1Ig2^250–444 (Ig1Ig2 tandem), Q9UBF9 Q356A (protein)
chain: B1 chain with Q107A, A110K
B6: Myotilin Ig1Ig2^250–444 (Ig1Ig2 tandem), Q9UBF9 K358A (protein)
chain: B1 chain with K109A, A110K
B7: Myotilin Ig1Ig2^250–444 (Ig1Ig2 tandem), Q9UBF9 K354A; K359A (protein)
chain: B1 chain with K105A
B8: Myotilin Ig1Ig2^250–444 (Ig1Ig2 tandem), Q9UBF9 K354A (protein)
chain: B1 chain with K105A, A110K
B9: Myotilin Ig1Ig2^250–444 (Ig1Ig2 tandem), Q9UBF9 250-444 (domain or fragment)
chain: B1 chain with A110K
B10: Full-length myotilin with N-terminal thioredoxin tag (Trx-MYOT), Q9UBF9 1-498 (natural protein)
chain: MFNYERPKHFIQSQNPCGSRLQPPGPETSSFSSQTKQSSIIIQPRQCTEQRFSASSTLSSHITMSSSAFPASPQQHAGSNPGQRVTTTYNQSPASFLSSILPSQPDYNSSKIPSAMDSNYQQSSAGQPINAKPSQTANAKPIPRTPDHEIQGSKEALIQDLERKLKCKDTLLHNGNQRLTYEEKMARRLLGPQNAAAVFQAQDDSGAQDSQQHNSEHARLQVPTSQVRSRSTSRGDVNDQDAIQEKFYPPRFIQVPENMSIDEGRFCRMDFKVSGLPAPDVSWYLNGRTVQSDDLHKMIVSEKGLHSLIFEVVRASDAGAYACVAKNRAGEATFTVQLDVLAKEHKRAPMFIYKPQSKKVLEGDSVKLECQISAIPPPKLFWKRNNEMVQFNTDRISLYQDNTGRVTLLIKDVNKKDAGWYTVSAVNEAGVTTCNTRLDVTARPNQTLPAPKQLRVRPTFSKYLALNGKGLNVKQAFNPEGEFQRLAAQSGLYESEEL

Tests used:
[1] = molecular target: F-actin (rabbit skeletal muscle actin, polymerized), P68135; assay: F-actin co-sedimentation assay; conditions: chain shown with the change; for response: 8 μM protein, percentage of theoretical total binding (100%), parent: est. 95, read off a plot
[2] = molecular target: T1, F-actin (rabbit skeletal muscle actin, polymerized) (rabbit), P68135; assay: co-sedimentation; F-actin co-sedimentation, conditions B2 (PIPES pH 6.8, 100 mM NaCl); fixed 6 μM myotilin fragment in 20 μl mixed with pre-polymerized F-actin (0 to 60 μM) in 20 μl; one site-specific binding fit; apparent Kd; conditions: remark: other sources report otherwise
[3] = molecular target: T1, F-actin (rabbit skeletal muscle actin, …); assay: co-sedimentation; F-actin co-sedimentation, conditions B1 (HEPES pH 7.4); fixed 16 μM myotilin construct in 20 μl mixed with pre-polymerized F-actin (0–120 μM) in 20 μl; room temperature 30 min, 125,000 × g; densitometry, one site-specific binding fit; apparent Kd; conditions: remark: other sources report otherwise

Binder	response [1]	other results
B1	72 % bound	–
B2	87 % bound	–
B3	87 % bound	–
B4	–	Kd ([1]; B1 conditions (asterisk)): 7.5 µM
B5	94 % bound	–
B6	80 % bound	–
B7	42 % bound	–
B8	55 % bound	–
B9	–	Kd [2]: 12.9 µM; Kd [3]: 9.2 µM
B10	–	Kd [2]: 0.29 µM

From PMC8062120
